Assay results reported in publication PMC12343972 (Nature Communications, 2025).
Changes are numbered by the printed parent chain.

Experiments:
[1] = molecular target: T1, Rad50-3KA (Saccharomyces cerevisiae, UniProt P12753 1-1312, K192A;K195A;K196A); assay: EMSA
T1 sequence: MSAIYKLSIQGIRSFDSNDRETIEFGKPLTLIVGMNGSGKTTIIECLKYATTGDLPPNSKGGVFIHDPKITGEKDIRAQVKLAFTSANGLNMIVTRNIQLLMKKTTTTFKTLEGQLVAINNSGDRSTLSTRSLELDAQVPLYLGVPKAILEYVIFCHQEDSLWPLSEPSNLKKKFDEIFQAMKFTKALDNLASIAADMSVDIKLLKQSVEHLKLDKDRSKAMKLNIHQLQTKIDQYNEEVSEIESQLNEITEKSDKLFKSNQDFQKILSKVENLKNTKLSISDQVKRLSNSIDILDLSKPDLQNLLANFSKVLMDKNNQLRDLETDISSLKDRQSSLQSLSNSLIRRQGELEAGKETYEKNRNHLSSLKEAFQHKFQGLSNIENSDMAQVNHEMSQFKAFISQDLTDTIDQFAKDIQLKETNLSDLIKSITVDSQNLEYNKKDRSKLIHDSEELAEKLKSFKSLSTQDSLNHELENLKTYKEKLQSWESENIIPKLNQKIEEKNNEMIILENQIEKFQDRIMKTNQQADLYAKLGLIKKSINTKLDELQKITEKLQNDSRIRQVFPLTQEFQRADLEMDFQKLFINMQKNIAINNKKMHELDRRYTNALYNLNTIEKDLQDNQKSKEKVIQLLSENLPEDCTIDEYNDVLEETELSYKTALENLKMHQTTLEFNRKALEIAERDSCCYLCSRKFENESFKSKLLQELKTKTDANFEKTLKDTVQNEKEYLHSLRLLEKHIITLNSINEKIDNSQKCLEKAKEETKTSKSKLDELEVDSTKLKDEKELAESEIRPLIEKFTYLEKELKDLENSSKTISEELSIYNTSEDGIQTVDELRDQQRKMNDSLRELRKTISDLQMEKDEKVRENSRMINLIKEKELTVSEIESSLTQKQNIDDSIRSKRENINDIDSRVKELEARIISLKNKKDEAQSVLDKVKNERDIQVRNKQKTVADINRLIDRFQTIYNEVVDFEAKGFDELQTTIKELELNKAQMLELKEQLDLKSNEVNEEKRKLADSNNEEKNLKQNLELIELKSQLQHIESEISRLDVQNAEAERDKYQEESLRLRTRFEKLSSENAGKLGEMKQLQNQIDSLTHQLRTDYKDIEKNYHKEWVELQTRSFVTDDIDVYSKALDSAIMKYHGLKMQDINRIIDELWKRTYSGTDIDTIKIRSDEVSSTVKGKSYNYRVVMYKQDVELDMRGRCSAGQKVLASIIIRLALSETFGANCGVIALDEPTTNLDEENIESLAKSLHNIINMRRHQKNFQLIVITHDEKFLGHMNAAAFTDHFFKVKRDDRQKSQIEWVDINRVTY

[2] = molecular target: T2, Rad50 WT (Saccharomyces cerevisiae, UniProt P12753 1-1312); assay: EMSA
T2 sequence: T1 sequence with A192K, A195K, A196K

B1: 83-mer dsDNA (EMSA) (dsDNA)
DNA 1: TTGATAAGAGGTCATTTTTGCGGATGGCTTAGAGCTTAATTGCTGAATCTGGTGCTGTAGCTCAACATGTTTTAAATATGCAA
DNA 2: TTGCATATTTAAAACATGTTGAGCTACAGCACCAGATTCAGCAATTAAGCTCTAAGCCATCCGCAAAAATGACCTCTTATCAA
B1: binds [1]; binds [2].
